*1 amine or outer side, *2 acyl side, *3 side chain or, on linkers, in order; H or OH if unused. Side-chain parts run from the residue outwards. The star is where a group is joined. C18 diacid = O=C(O)CCCCCCCCCCCCCCCCC(=O)*; γGlu = O=C(O)[C@H](CCC(=O)[*:2])N[*:1]; Isovaleryl = CC(C)CC(=O)*; Ahx = NCCCCCC(=O)O
Target: T1, human NPY2 receptor (human, UniProt P49146 1-381)
T1 construct: whole, on cells; also called hNPY2-R; hNPY2R
T1 sequence (looked up): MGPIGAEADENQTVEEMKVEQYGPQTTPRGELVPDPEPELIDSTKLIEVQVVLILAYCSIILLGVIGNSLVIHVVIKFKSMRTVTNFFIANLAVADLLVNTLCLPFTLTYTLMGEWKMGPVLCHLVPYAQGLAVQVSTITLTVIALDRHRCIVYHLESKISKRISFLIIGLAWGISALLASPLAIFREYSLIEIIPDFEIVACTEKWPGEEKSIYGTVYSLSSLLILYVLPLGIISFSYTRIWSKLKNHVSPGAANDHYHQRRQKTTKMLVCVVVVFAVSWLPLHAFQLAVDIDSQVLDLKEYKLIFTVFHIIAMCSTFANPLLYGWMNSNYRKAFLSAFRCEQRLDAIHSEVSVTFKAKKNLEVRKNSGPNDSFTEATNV
Assay: RLB: displacement of 125I-PYY(1-36) from hNPY2R membranes

| Binder | Ki [nM] |
| --- | --- |
| Isovaleryl-APEK([Ahx-γGlu-C18 diacid])PEEDATPEELQAYYVSLRHYYNWLTRQRY-NH2 (SMILES CC(C)CC(=O)N[C@@H](C)C(=O)N1CCC[C@H]1C(=O)N[C@@H](CCC(=O)O)C(=O)N[C@@H](CCCCNC(=O)CCCCCNC(=O)CC[C@H](NC(=O)CCCCCCCCCCCCCCCCC(=O)O)C(=O)O)C(=O)N1CCC[C@H]1C(=O)N[C@@H](CCC(=O)O)C(=O)N[C@@H](CCC(=O)O)C(=O)N[C@@H](CC(=O)O)C(=O)N[C@@H](C)C(=O)N[C@H](C(=O)N1CCC[C@H]1C(=O)N[C@@H](CCC(=O)O)C(=O)N[C@@H](CCC(=O)O)C(=O)N[C@@H](CC(C)C)C(=O)N[C@@H](CCC(N)=O)C(=O)N[C@@H](C)C(=O)N[C@@H](Cc1ccc(O)cc1)C(=O)N[C@@H](Cc1ccc(O)cc1)C(=O)N[C@H](C(=O)N[C@@H](CO)C(=O)N[C@@H](CC(C)C)C(=O)N[C@@H](CCCNC(=N)N)C(=O)N[C@@H](Cc1c[nH]cn1)C(=O)N[C@@H](Cc1ccc(O)cc1)C(=O)N[C@@H](Cc1ccc(O)cc1)C(=O)N[C@@H](CC(N)=O)C(=O)N[C@@H](Cc1c[nH]c2ccccc12)C(=O)N[C@@H](CC(C)C)C(=O)N[C@H](C(=O)N[C@@H](CCCNC(=N)N)C(=O)N[C@@H](CCC(N)=O)C(=O)N[C@@H](CCCNC(=N)N)C(=O)N[C@@H](Cc1ccc(O)cc1)C(N)=O)[C@@H](C)O)C(C)C)[C@@H](C)O) [Compound 95] | 2.92 |
| Isovaleryl-APEK([Ahx-γGlu-C18 diacid])PEEDATLEELQRYYVSLRHYYNWLTRQRY-NH2 (SMILES CC(C)CC(=O)N[C@@H](C)C(=O)N1CCC[C@H]1C(=O)N[C@@H](CCC(=O)O)C(=O)N[C@@H](CCCCNC(=O)CCCCCNC(=O)CC[C@H](NC(=O)CCCCCCCCCCCCCCCCC(=O)O)C(=O)O)C(=O)N1CCC[C@H]1C(=O)N[C@@H](CCC(=O)O)C(=O)N[C@@H](CCC(=O)O)C(=O)N[C@@H](CC(=O)O)C(=O)N[C@@H](C)C(=O)N[C@H](C(=O)N[C@@H](CC(C)C)C(=O)N[C@@H](CCC(=O)O)C(=O)N[C@@H](CCC(=O)O)C(=O)N[C@@H](CC(C)C)C(=O)N[C@@H](CCC(N)=O)C(=O)N[C@@H](CCCNC(=N)N)C(=O)N[C@@H](Cc1ccc(O)cc1)C(=O)N[C@@H](Cc1ccc(O)cc1)C(=O)N[C@H](C(=O)N[C@@H](CO)C(=O)N[C@@H](CC(C)C)C(=O)N[C@@H](CCCNC(=N)N)C(=O)N[C@@H](Cc1c[nH]cn1)C(=O)N[C@@H](Cc1ccc(O)cc1)C(=O)N[C@@H](Cc1ccc(O)cc1)C(=O)N[C@@H](CC(N)=O)C(=O)N[C@@H](Cc1c[nH]c2ccccc12)C(=O)N[C@@H](CC(C)C)C(=O)N[C@H](C(=O)N[C@@H](CCCNC(=N)N)C(=O)N[C@@H](CCC(N)=O)C(=O)N[C@@H](CCCNC(=N)N)C(=O)N[C@@H](Cc1ccc(O)cc1)C(N)=O)[C@@H](C)O)C(C)C)[C@@H](C)O) [Compound 102] | 7.15 |
| Isovaleryl-APEK([Ahx-γGlu-C18 diacid])PEEDATPEEIQRYYLSLRHYYNWLTRQRY-NH2 (SMILES CC[C@H](C)[C@H](NC(=O)[C@H](CCC(=O)O)NC(=O)[C@H](CCC(=O)O)NC(=O)[C@@H]1CCCN1C(=O)[C@@H](NC(=O)[C@H](C)NC(=O)[C@H](CC(=O)O)NC(=O)[C@H](CCC(=O)O)NC(=O)[C@H](CCC(=O)O)NC(=O)[C@@H]1CCCN1C(=O)[C@H](CCCCNC(=O)CCCCCNC(=O)CC[C@H](NC(=O)CCCCCCCCCCCCCCCCC(=O)O)C(=O)O)NC(=O)[C@H](CCC(=O)O)NC(=O)[C@@H]1CCCN1C(=O)[C@H](C)NC(=O)CC(C)C)[C@@H](C)O)C(=O)N[C@@H](CCC(N)=O)C(=O)N[C@@H](CCCNC(=N)N)C(=O)N[C@@H](Cc1ccc(O)cc1)C(=O)N[C@@H](Cc1ccc(O)cc1)C(=O)N[C@@H](CC(C)C)C(=O)N[C@@H](CO)C(=O)N[C@@H](CC(C)C)C(=O)N[C@@H](CCCNC(=N)N)C(=O)N[C@@H](Cc1c[nH]cn1)C(=O)N[C@@H](Cc1ccc(O)cc1)C(=O)N[C@@H](Cc1ccc(O)cc1)C(=O)N[C@@H](CC(N)=O)C(=O)N[C@@H](Cc1c[nH]c2ccccc12)C(=O)N[C@@H](CC(C)C)C(=O)N[C@H](C(=O)N[C@@H](CCCNC(=N)N)C(=O)N[C@@H](CCC(N)=O)C(=O)N[C@@H](CCCNC(=N)N)C(=O)N[C@@H](Cc1ccc(O)cc1)C(N)=O)[C@@H](C)O) [Compound 97] | 4.23 |
| Isovaleryl-APEK([Ahx-γGlu-C18 diacid])PEADATPEELQRYYIALRHYYNWLTRQRY-NH2 (SMILES CC[C@H](C)[C@H](NC(=O)[C@H](Cc1ccc(O)cc1)NC(=O)[C@H](Cc1ccc(O)cc1)NC(=O)[C@H](CCCNC(=N)N)NC(=O)[C@H](CCC(N)=O)NC(=O)[C@H](CC(C)C)NC(=O)[C@H](CCC(=O)O)NC(=O)[C@H](CCC(=O)O)NC(=O)[C@@H]1CCCN1C(=O)[C@@H](NC(=O)[C@H](C)NC(=O)[C@H](CC(=O)O)NC(=O)[C@H](C)NC(=O)[C@H](CCC(=O)O)NC(=O)[C@@H]1CCCN1C(=O)[C@H](CCCCNC(=O)CCCCCNC(=O)CC[C@H](NC(=O)CCCCCCCCCCCCCCCCC(=O)O)C(=O)O)NC(=O)[C@H](CCC(=O)O)NC(=O)[C@@H]1CCCN1C(=O)[C@H](C)NC(=O)CC(C)C)[C@@H](C)O)C(=O)N[C@@H](C)C(=O)N[C@@H](CC(C)C)C(=O)N[C@@H](CCCNC(=N)N)C(=O)N[C@@H](Cc1c[nH]cn1)C(=O)N[C@@H](Cc1ccc(O)cc1)C(=O)N[C@@H](Cc1ccc(O)cc1)C(=O)N[C@@H](CC(N)=O)C(=O)N[C@@H](Cc1c[nH]c2ccccc12)C(=O)N[C@@H](CC(C)C)C(=O)N[C@H](C(=O)N[C@@H](CCCNC(=N)N)C(=O)N[C@@H](CCC(N)=O)C(=O)N[C@@H](CCCNC(=N)N)C(=O)N[C@@H](Cc1ccc(O)cc1)C(N)=O)[C@@H](C)O) [Compound 100] | 1.01 |
| Isovaleryl-APEK([Ahx-γGlu-C18 diacid])PEEDATQEELQRYYVSLRHYYNWLTRQRY-NH2 (SMILES CC(C)CC(=O)N[C@@H](C)C(=O)N1CCC[C@H]1C(=O)N[C@@H](CCC(=O)O)C(=O)N[C@@H](CCCCNC(=O)CCCCCNC(=O)CC[C@H](NC(=O)CCCCCCCCCCCCCCCCC(=O)O)C(=O)O)C(=O)N1CCC[C@H]1C(=O)N[C@@H](CCC(=O)O)C(=O)N[C@@H](CCC(=O)O)C(=O)N[C@@H](CC(=O)O)C(=O)N[C@@H](C)C(=O)N[C@H](C(=O)N[C@@H](CCC(N)=O)C(=O)N[C@@H](CCC(=O)O)C(=O)N[C@@H](CCC(=O)O)C(=O)N[C@@H](CC(C)C)C(=O)N[C@@H](CCC(N)=O)C(=O)N[C@@H](CCCNC(=N)N)C(=O)N[C@@H](Cc1ccc(O)cc1)C(=O)N[C@@H](Cc1ccc(O)cc1)C(=O)N[C@H](C(=O)N[C@@H](CO)C(=O)N[C@@H](CC(C)C)C(=O)N[C@@H](CCCNC(=N)N)C(=O)N[C@@H](Cc1c[nH]cn1)C(=O)N[C@@H](Cc1ccc(O)cc1)C(=O)N[C@@H](Cc1ccc(O)cc1)C(=O)N[C@@H](CC(N)=O)C(=O)N[C@@H](Cc1c[nH]c2ccccc12)C(=O)N[C@@H](CC(C)C)C(=O)N[C@H](C(=O)N[C@@H](CCCNC(=N)N)C(=O)N[C@@H](CCC(N)=O)C(=O)N[C@@H](CCCNC(=N)N)C(=O)N[C@@H](Cc1ccc(O)cc1)C(N)=O)[C@@H](C)O)C(C)C)[C@@H](C)O) [Compound 105] | 5.97 |
| Isovaleryl-APEK([Ahx-γGlu-C18 diacid])PEESATPEELQRYYVSLRHYYNWLTRQRY-NH2 (SMILES CC(C)CC(=O)N[C@@H](C)C(=O)N1CCC[C@H]1C(=O)N[C@@H](CCC(=O)O)C(=O)N[C@@H](CCCCNC(=O)CCCCCNC(=O)CC[C@H](NC(=O)CCCCCCCCCCCCCCCCC(=O)O)C(=O)O)C(=O)N1CCC[C@H]1C(=O)N[C@@H](CCC(=O)O)C(=O)N[C@@H](CCC(=O)O)C(=O)N[C@@H](CO)C(=O)N[C@@H](C)C(=O)N[C@H](C(=O)N1CCC[C@H]1C(=O)N[C@@H](CCC(=O)O)C(=O)N[C@@H](CCC(=O)O)C(=O)N[C@@H](CC(C)C)C(=O)N[C@@H](CCC(N)=O)C(=O)N[C@@H](CCCNC(=N)N)C(=O)N[C@@H](Cc1ccc(O)cc1)C(=O)N[C@@H](Cc1ccc(O)cc1)C(=O)N[C@H](C(=O)N[C@@H](CO)C(=O)N[C@@H](CC(C)C)C(=O)N[C@@H](CCCNC(=N)N)C(=O)N[C@@H](Cc1c[nH]cn1)C(=O)N[C@@H](Cc1ccc(O)cc1)C(=O)N[C@@H](Cc1ccc(O)cc1)C(=O)N[C@@H](CC(N)=O)C(=O)N[C@@H](Cc1c[nH]c2ccccc12)C(=O)N[C@@H](CC(C)C)C(=O)N[C@H](C(=O)N[C@@H](CCCNC(=N)N)C(=O)N[C@@H](CCC(N)=O)C(=O)N[C@@H](CCCNC(=N)N)C(=O)N[C@@H](Cc1ccc(O)cc1)C(N)=O)[C@@H](C)O)C(C)C)[C@@H](C)O) [Compound 96] | 3.06 |

— patent US20260015399A1 (Boehringer Ingelheim, published 2026)
